Measurements reported in patent US7468258.

Biological target: T1, recombinant His-tagged VWF73 peptide substrate labeled with two fluoresceins
T1 chain: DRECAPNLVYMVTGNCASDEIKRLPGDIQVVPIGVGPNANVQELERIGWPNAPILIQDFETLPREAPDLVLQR

B1: ADAMTS13 (A Disintegrin-like And Metalloprotease with ThromboSpondin type 1 motif) (protein)
chain: AAGGILHLELLVAVGPDVFQAHQEDTERYVLTNLNIGAELLRDPSLGAQFRVHLVKMVILTEPEGAPNITANLTSSLLSVCGWSQTINPEDDTDPGHADLVLYITRFDLELPDGNRQVRGVTQLGGACSPTWSCLITEDTGFDLGVTIAHEIGHSFGLEHDGAPGSGCGPSGHVMASDGAAPRAGLAWSPCSRRQLLSLLSAGRARCVWDPPRPQPGSAGHPPDAQPGLYYSANEQCRVAFGPKAVACTFAREHLDMCQALSCHTDPLDQSSCSRLLVPLLDGTECGVEKWCSKGRCRSLVELTPIAAVHGRWSSWGPRSPCSRSCGGGVVTRRRQCNNPRPAFGGRACVGADLQAEMCNTQACEKTQLEFMSQQCARTDGQPLRSSPGGASFYHWGAAVPHSQGDALCRHMCRAIGESFIMKRGDSFLDGTRCMPSGPREDGTLSLCVSGSCRTFGCDGRMDSQQVWDRCQVCGGDNSTCSPRKGSFTAGRAREYVTFLTVTPNLTSVYIANHRPLFTHLAVRIGGRYVVAGKMSISPNTTYPSLLEDGRVEYRVALTEDRLPRLEEIRIWGPLQEDADIQVYRRYGEEYGNLTRPDITFTYFQPKPRQAWVWAAVRGPCSVSCGAGLRWVNYSCLDQARKELVETVQCQGSQQPPAWPEACVLEPCPPYWAVGDFGPCSASCGGGLRERPVRCVEAQGSLLKTLPPARCRAGAQQPAVALETCNPQPCPARWEVSEPSSCTSAGGAGLALENETCVPGADGLEAPVTEGPGSVDEKLPAPEPCVGMSCPPGWGHLDATSAGEKAPSPWGSIRTGAQAAHVWTPAAGSCSVSCGRGLMELRFLCMDSALRVPVQEELCGLASKPGSRREVCQAVPCPARWQYKLAACSVSCGRGVVRRILYCARAHGEDDGEEILLDTQCQGLPRPEPQEACSLEPCPPRWKVMSLGPCSASCGLGTARRSVACVQLDQGQDVEVDEAACAALVRPEASVPCLIADCTYRWHVGTWMECSVSCGDGIQRRRDTCLGPQAQAPVPADFCQHLPKPVTVRGCWAGPCVGQGTPSLVPHEEAAAPGRTTATPAGASLEWSQARGLLFSPAPQPRRLLPGPQENSVQSSACGRQHLEPTGTIDMRGPGQADCAVAIGRPLGEVVTLRVLESSLNCSAGDMLLLWGRLTWRKMCRKLLDMTFSSKTNTLVVRQRCGRPGGGVLLRYGSQLAPETFYRECDMQLFGPWGEIVSPSLSPATSNAGGCRLFINVAPHARIAIHALATNMGAGTEGANASYILIRDTHSLRTTAFHGQQVLYWESESSQAEMEFSEGFLKAQASLRGQYWTLQSWVPEMQDPQSWKGKEGT
fluorescence of the recombinant peptide during incubation (FRET self-quenching cleavage assay, 96 well plate, fluorometer): With normal pooled plasma (PNP), there is steady increase of fluorescence over time
